Results on one molecule are retold here after PMC4866770 (PLoS ONE, 2016).

In this assay the target is amyloid precursor protein (APP) (human (endogenous in HEK293), UniProt P05067 18-770). The assay can be described thus: cell-based or functional assay.
Sequence of amyloid precursor protein (APP) (P05067 18-770): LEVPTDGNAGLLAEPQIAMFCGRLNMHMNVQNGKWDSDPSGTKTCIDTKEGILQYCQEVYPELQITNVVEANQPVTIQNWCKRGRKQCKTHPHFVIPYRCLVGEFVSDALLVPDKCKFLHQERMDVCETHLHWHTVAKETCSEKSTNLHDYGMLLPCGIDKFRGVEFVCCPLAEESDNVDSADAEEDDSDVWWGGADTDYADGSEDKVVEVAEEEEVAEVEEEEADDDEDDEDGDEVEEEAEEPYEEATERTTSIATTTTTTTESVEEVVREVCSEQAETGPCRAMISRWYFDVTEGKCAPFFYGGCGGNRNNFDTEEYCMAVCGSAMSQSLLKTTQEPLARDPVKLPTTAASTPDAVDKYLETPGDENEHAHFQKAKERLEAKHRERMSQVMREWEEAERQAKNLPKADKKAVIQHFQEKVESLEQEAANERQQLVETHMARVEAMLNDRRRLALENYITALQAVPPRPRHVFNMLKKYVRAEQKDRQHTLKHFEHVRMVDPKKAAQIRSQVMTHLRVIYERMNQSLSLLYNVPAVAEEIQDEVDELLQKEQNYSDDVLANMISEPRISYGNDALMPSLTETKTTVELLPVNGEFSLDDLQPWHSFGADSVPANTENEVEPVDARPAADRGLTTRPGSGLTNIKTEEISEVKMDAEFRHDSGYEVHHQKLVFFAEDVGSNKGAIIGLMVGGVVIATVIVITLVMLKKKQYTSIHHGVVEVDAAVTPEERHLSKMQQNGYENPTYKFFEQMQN

B1: FLAG-Fe65 (natural protein, human, UniProt O00213-2 1-708, looked up)
chain: MSVPSSLSQSAINANSHGGPALSLPLPLHAAHNQLLNAKLQATAVGPKDLRSAMGEGGGPEPGPANAKWLKEGQNQLRRAATAHRDQNRNVTLTLAEEASQEPEMAPLGPKGLIHLYSELELSAHNAANRGLRGPGLIISTQEQGPDEGEEKAAGEAEEEEEDDDDEEEEEDLSSPPGLPEPLESVEAPPRPQALTDGPREHSKSASLLFGMRNSAASDEDSSWATLSQGSPSYGSPEDTDSFWNPNAFETDSDLPAGWMRVQDTSGTYYWHIPTGTTQWEPPGRASPSQGSSPQEESQLTWTGFAHGEGFEDGEFWKDEPSDEAPMELGLKEPEEGTLTFPAQSLSPEPLPQEEEKLPPRNTNPGIKCFAVRSLGWVEMTEEELAPGRSSVAVNNCIRQLSYHKNNLHDPMSGGWGEGKDLLLQLEDETLKLVEPQSQALLHAQPIISIRVWGVGRDSGRDFAYVARDKLTQMLKCHVFRCEAPAKNIATSLHEICSKIMAERRNARCLVNGLSLDHSKLVDVPFQVEFPAPKNELVQKFQVYYLGNVPVAKPVGVDVINGALESVLSSSSREQWTPSHVSVAPATLTILHQQTEAVLGECRVRFLSFLAVGRDVHTFAFIMAAGPASFCCHMFWCEPNAASLSEAVQAACMLRYQKCLDARSQASTSCLPAPPAESVARRVGWTVRRGVQSLWGSLKPKRLGAHTP
For the molecule B1, the “GAL4-dependent firefly luciferase reporter in HEK293 with pMST-APP (full-length APP fused to the GAL4 DNA binding domain): increase of APP transcriptional activity” value was approximately 14 fold.
